Reference: PMC5693625
Like-named read-outs stand apart in the source and are kept apart here.

Experiments:
Experiment in all cases: functional binding isotherm
DDX3X [1] = target: T1, DDX3X (Homo sapiens, UniProt O00571 1-662)
DDX3X [2] = target: T1, DDX3X; remark: listed apart in the source
DDX3X [3] = target: T1, DDX3X; remark: listed apart in the source

T1 sequence (O00571 whole entry): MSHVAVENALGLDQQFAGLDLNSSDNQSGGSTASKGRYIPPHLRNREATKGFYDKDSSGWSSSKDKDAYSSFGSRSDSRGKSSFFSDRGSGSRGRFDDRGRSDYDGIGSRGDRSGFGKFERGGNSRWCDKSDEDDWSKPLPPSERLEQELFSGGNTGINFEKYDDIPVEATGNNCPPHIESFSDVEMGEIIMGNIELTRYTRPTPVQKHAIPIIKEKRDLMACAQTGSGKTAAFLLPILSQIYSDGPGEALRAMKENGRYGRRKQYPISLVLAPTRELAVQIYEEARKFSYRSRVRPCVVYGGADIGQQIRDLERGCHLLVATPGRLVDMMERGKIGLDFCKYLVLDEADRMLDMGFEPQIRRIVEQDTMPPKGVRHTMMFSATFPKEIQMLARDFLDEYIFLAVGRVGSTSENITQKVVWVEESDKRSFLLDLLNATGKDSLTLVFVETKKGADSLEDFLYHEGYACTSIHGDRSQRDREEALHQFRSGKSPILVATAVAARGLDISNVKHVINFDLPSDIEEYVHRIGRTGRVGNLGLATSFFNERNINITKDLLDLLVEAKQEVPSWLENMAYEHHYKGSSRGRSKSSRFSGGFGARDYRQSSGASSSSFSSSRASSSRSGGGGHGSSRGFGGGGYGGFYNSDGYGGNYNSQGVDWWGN

B1: 19 bp RNA, 25 nt 5' tail (R19-5'c/R44-5'c) (dsRNA)
RNA 1: CAGAGGAGCAGAGGGAGCA
RNA 2: AAACUACGACUACAGUAACUACGACUGCUCCCUCUGCUCCUCUG
apparent K (half saturation) (DDX3X [1]): 166 ± 18 nM

B2: 13 bp RNA, 25 nt 5' tail (R13-5'a/R38-5'a) (dsRNA)
RNA 1: CGAAAUGCCACGA
RNA 2: AAAACAAAACAAAACAAAACAAAAUUCGUGGCAUUUCG
apparent K (half saturation) (DDX3X [2]): 139 ± 21 nM

B3: 16 bp RNA, 15 nt 3' tail (dsRNA)
RNA 1: CCGUCUUUACGGUGCU
RNA 2: AGCACCGUAAAGACGGUAAAACAAAACAAAA
apparent K (half saturation) (DDX3X [3]): 298 ± 4 nM

B4: 16 bp RNA, 25 nt 3' tail (R16-3'c/R41-3'c) (dsRNA)
RNA 1: CCGUCUUUACGGUGCU
RNA 2: AGCACCGUAAAGACGGUAAAACAAAACAAAACAAAACAAAA
apparent K (half saturation) (DDX3X [3]): 118 ± 5 nM

B5: 16 bp RNA, 25 nt 5' tail (R16-5'a/R41-5'a) (dsRNA)
RNA 1: AGCACCGUAAAGACGC
RNA 2: AAAACAAAACAAAACAAAACAAAAUGCGUCUUUACGGUGCU
apparent K (half saturation) (DDX3X [3]): 127 ± 20 nM
apparent K (half saturation) (DDX3X [1]): 119 ± 35 nM
